The results in this text go back to PMC6389498, “Control of Bacterial Virulence through the Peptide Signature of the Habitat” (Cell Reports, 2019).

Assay [1] addresses PrfA (recombinant PrfA^WT from E. coli BL21(pET28aprfA^WT), used in the biophysical assays) (Listeria monocytogenes) (UniProt P22262).
The target is the same in assay [2]. Briefly: ITC; GE MicroCal iTC200; 100 uM PrfA in the cell, 2 uL of 250 uM peptide injected every 60 s; 50 mM Tris pH 7.5, 500 mM NaCl; one-site model.
Assay [3] concerns the target PrfA (full-length PrfA^WT with two non-native N-terminal residues GA after TEV cleavage, used for crystallization) (Listeria monocytogenes) (UniProt P22262). Briefly: crystal structure.

As usually defined, the Kd is the constant that tells how readily two partners part at equilibrium. As usually defined, the stoichiometry N is a count of units in the complex or per binding partner.

Sequence of PrfA (recombinant PrfA^WT from E. coli BL21(pET28aprfA^WT), used in the biophysical assays) (Listeria monocytogenes) (P22262 whole entry): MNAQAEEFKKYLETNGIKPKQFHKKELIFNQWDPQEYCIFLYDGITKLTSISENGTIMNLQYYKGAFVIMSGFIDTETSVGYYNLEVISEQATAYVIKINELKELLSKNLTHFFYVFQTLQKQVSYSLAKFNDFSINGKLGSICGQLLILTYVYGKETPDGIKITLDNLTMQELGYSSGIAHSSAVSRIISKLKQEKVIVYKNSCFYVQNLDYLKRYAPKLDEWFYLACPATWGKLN
Sequence of PrfA (full-length PrfA^WT with two non-native N-terminal residues GA after TEV cleavage, used for crystallization) (P22262 1-237, tags left off): as the sequence (P22262 whole entry) above

For LLL peptide (Leu tripeptide), in assay [1], the other was 87%. Further, the Kd in assay [2] was found to be 25 µM.
On to “PrfA (full-length PrfA^WT with two non-native N-terminal residues GA after TEV cleavage, used for crystallization) (from UniProt P22262 1-237) (natural protein)”, for which, in assay [3], the stoichiometry N was found to be 2.
Turning to “LL peptide (Leu dipeptide, L-leucylleucine)”, the other in assay [1] came to 93%. Also, the Kd in assay [2] worked out at 25 µM.
